This note sets out measurements from PMC12775136.

This experiment has as its target UPF1-Hel (human).

With “full-length SLBP (SLBPfl) (from UniProt Q14493 1-270) (natural protein)”, the extent of linear RNA substrate unwound by UPF1-Hel (fluorescence-based nucleic acid unwinding assay) with SLBPfl at equimolar amount to 3-fold molar excess; further decrease at 3-fold excess amounted to 66%.
